Measurements: article doi:10.1101/577437 (bioRxiv, 2019)

Target: T1, RALA (residues 1-183) (UniProt P11233 1-183)
T1 sequence: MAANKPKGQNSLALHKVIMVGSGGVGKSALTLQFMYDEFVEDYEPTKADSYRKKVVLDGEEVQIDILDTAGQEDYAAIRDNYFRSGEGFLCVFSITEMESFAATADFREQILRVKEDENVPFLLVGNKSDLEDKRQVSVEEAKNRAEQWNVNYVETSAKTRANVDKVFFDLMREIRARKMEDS
Test: NMR titration

B1: human RLIP76 RBD (residues 395-517) (domain or fragment)
chain: QAGIKEEIRRQEFLLNCLHRDLQGGIKDLSKEERLWEVQRILTALKRKLREAKRQECETKIAQEIASLSKEDVSKEEMNENEEVINILLAQENEILTEQEELLAMEQFLRRQIASEKEEIERL
  binding result: binds
